This is an account of results in patent US20110274692A1 (published 2011).

B1: Ab080 (antibody, V domains shown)
VH: EVQLVESGGGVVQPGGSLRLSCAASGFTFDDYAMHWVRQAPGKGLEWVSLISWDGGSTYYADSVKGRFTISRDNSKNSLYLQMNSLRAEDTALYYCAKARGVVIIDYWGQGTLVTVSS
VL: EIVLTQSPGTLSLSPGERATLSCRASQSLSSSFLAWYQQKPGQAPRLLIYGAGSRATGVPDRFSGSGYGTDFSLTISRLELEDFAVYYCQQYDRSQITFGQGTRLEIK
B2: Ab053 (antibody, V domains shown)
VH: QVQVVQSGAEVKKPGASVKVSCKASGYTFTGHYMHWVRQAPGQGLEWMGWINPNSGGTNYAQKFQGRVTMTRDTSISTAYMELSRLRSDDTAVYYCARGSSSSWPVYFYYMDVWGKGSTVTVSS
VL: QSALTQPRSVSESPGKTVTISCTGSGGSIGSNYVQWYQQRPGSAPTTVIFEDNRRPSGVPDRFSGSIHSSSNSASLTISGLKTEDEADYYCQSYVGTIVVFGGGTKVTVL
B3: Ab037 (antibody, V domains shown)
VH: EVQLLESGGGLVQPGGSLRLSCAASGFTFSSYEMNWVRQAPGKGLEWVSSISSSSRYADVANSVVGRFTISRDNSKNTLYLQMNSLRAEDTAVYYCARGEWLDHFDYWGQGTLVTVSS
VL: QSVLTQPPSASGTPGQRVTISCSGSSSNIGNSAVNWYQQLPGTAPKLLIYDNNKRPSGVPDRFSGSKSGTSASLAISGLRSEDEADYYCQVWDSGTAVFGGGTKLTVLG
B4: Ab001 (antibody, V domains shown)
VH: EVQLLESGGGLVQPGGSLRLSCAASGFTFSSYEMNWVRQAPGKGLEWVSSISSSSSYIYYADSVKGRFTISRDNSKNTLYLQMNSLRAEDTAVYYCARVRWYKDSDAFDIWGQGTLVTVSS
VL: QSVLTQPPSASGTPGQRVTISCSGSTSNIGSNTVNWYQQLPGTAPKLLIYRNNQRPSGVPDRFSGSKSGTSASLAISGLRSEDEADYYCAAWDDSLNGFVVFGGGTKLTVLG
B5: Ab079 (antibody, V domains shown)
VH: QMQLVQSGAEMKKPGASVKVSCKASGYSFSDYGITWVRQAPGQGPEWMGWISGYNGNTNYAQKFQDRVTMTTDTSTSTAYMELRSLKSDDTAVYFCARARGVWMFDNWGQGTLVTVSS
VL: AIRMTQSPSTLSASVGDRVTITCRASQSISTWLAWYQQKPGKAPKLLIYTTSTLESGVPSRFSGSRSGTEFTLTISSLQPDDFATYYCQQYNSYPLTFGGGTKVEIK
B6: Ab062 (antibody, V domains shown)
VH: QVQLQQWGAGLLKPSETLSLTCAVYGGSFSGYYWSWIRQPPGKGLEWIGEINHSGSTNYNPSLKSRVTISVDTSKNQFSLKLSSVTAADTAVYYCARGPSGWYIREFDYWGQGTLVTVSS
VL: QSVLTQPPSVSGAPGQRVTISCTGSSSNIGAGYDVHWYQQLPGTAPKLLIYGNSNRPSGVPDRFSGSKSGTSASLAITGLQAEDEADYYCQSYDSSLSGSGVFGGGTKVTVL
B7: Ab083 (antibody, V domains shown)
VH: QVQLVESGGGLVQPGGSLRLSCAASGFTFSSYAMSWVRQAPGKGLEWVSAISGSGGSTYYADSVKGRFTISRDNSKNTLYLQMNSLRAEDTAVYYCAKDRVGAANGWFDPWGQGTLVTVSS
VL: AIQLTQSPSSLSASVGDRVTISCRASQSITSYLNWYQQKPGKAPNLLIYAASSLQSGVPSRFSGSGSGTDFTLTIAGLQPEDFATYYCQQFDSYPFTFGGGTKLEIK

In the assay the target is T1, INS/INSR complex (human, UniProt P06213 28-1382; P01308 25-110, limits assumed).
T1 construct: cells carrying INSR pre-exposed to human insulin (150 nM for CHO-K1 hINSR cells); also called R-L; INSR with insulin
Put plainly: ratio of the value for R to the value for R-L, Table 2.
Turning to B1, the “KD ratios (R against R-L)” value is 17.6. The same measure for B2: 1.5; for B3: 1.4; for B4: 103. The same measure for B5: 19.4; for B6: 1.1; for B7: 20.2.
